Results from article PMC5687611.

Legend:
[1] = molecular target: L3B3-hPD-L1 phage clone (displayed on M13 phage) (human) (UniProt Q9NZQ7); test: ELISA; inhibition phage ELISA: phage displaying hPD-L1 variants incubated with 1.6 µM non-biotinylated soluble hPD-1 for 1 h before adding to plates with captured biotinylated hPD-1
[2] = molecular target: L3C7-hPD-L1 phage clone (displayed on M13 phage) (human) (UniProt Q9NZQ7); test: as above

- inhibition rate at 1.6 µM soluble hPD-1 [1]: 86.7%
- inhibition rate at 1.6 µM soluble hPD-1 [2]: 82.6%
Substance: soluble non-biotinylated hPD-1 (residues 33-150, C93S) (from UniProt Q15116 33-150) (domain or fragment)
